Reference: PMC11588112

Experiments:
[1] = target: mumps postfusion F glycoprotein trimer (unstabilized 476-GCN4) (mumps virus); assay: negative-stain EM; purified glycoprotein designs alone, 2D class averages
[2] = target: prefusion-stabilized mumps fusion (F) glycoprotein trimer, genotype G (V206C-A223C with 476-GCN4 and 101KRF-101GGG) (mumps virus, genotype G); assay: crystal structure
[3] = target: prefusion-stabilized mumps fusion (F) glycoprotein trimer, genotype G (V206C-A223C with 476-GCN4 and 101KRF-101GGG) (mumps virus, genotype G); assay: negative-stain EM; purified glycoprotein designs alone, 2D class averages

Row | Substance | stoichiometry N [1] | stoichiometry N [2] | stoichiometry N [3]
1 | mumps postfusion F glycoprotein trimer (unstabilized 476-GCN4) | 3 | – | –
2 | prefusion-stabilized mumps fusion (F) glycoprotein trimer, genotype G (V206C-A223C with 476-GCN4 and 101KRF-101GGG) | – | 3 | 3
